B1: Hairpin Ribozyme (parent)
chain: GUCCUCUUUCACGUGCGCGUGAAAGAGAGAAGUGAACCAGAGAAACACACGUUGUGGUAUAUUACCUGGUA

Self-cleavage data for 38 variants are collected here from the RNAGym collection of RNA variant scans (doi:10.7554/elife.80360).

This data set covers variants of B1. The experiment in a line: self-cleavage, relative activity (ratio to wild type); higher = more cleavage; co-transcriptional.
GUCCUCUUUCACGUGCGCGUGAAAGAGAGAAGUGAACCAGAGUAACACACGUUGUGGUAUAUUGCCUGGUA: the self-cleavage came to 0.159.
Under GUCCUCUUUCACGUGCGCGUGAAAGAGAGAAGUGAACCAGAGGAACACAGGUUGUGGUAUAUUACCUGGUA stands 0.133; under GUCCUCUUUCACGUGCGCGUGAAAGAGAGAAGUGAACCAGAGUAACACACGUUGUGGUAUUUUACCUGGUA, 0.174.
Then GUCCUCUUUCACGUGCGCGUGAAAGAGAGAAGUGAACCAGAGACACACGCGUUGUGGUAUAUUACCUGGUA, with 0.22; and GUCCUCUUUCACGUGCGCGUGAAAGAGAGAAGUGAACCAGAGCAACAAACGUUGUGGUAUAUUACCUGGUA, with 0.135; and GUCCUCUUUCACGUGCGCGUGAAAGAGAGAAGUGAACCAGAGCAACACACGUUGUGGUAUGUUACCUGGUA, with 0.147.
Under GUCCUCUUUCACGUGCGCGUGAAAGAGAGAAGUGAACCAGAGCAACACGCGUUGUGGUAUAUUACCUGGUA stands 0; under GUCCUCUUUCACGUGCGCGUGAAAGAGAGAAGUGAACCAGAGGAACACACGUUGUGGUAUAUUACCUGUUA, 0.126; under GUCCUCUUUCACGUGCGCGUGAAAGAGAGAAGUGAACCAGAGUAACACACGUUGUGGUAUAUGACCUGGUA, 0.307.
GUCCUCUUUCACGUGCGCGUGAAAGAGAGAAGUGAACCAGAGCAACACACGUUGCGGUAUAUUACCUGGUA: the self-cleavage stood at 0.201.
For GUCCUCUUUCACGUGCGCGUGAAAGAGAGAAGUGAACCAGAGCAACACACGUUGAGGUAUAUUACCUGGUA, the self-cleavage came out at 0.174.
For the variant GUCCUCUUUCACGUGCGCGUGAAAGAGAGAAGUGAACCAGAGCAACACACGUUGUGGUGUAUUACCUGGUA, the self-cleavage was 0.284.
Then GUCCUCUUUCACGUGCGCGUGAAAGAGAGAAGUGAACCAGAGGAACACACGUUGUGGUUUAUUACCUGGUA, with 0.157; and GUCCUCUUUCACGUGCGCGUGAAAGAGAGAAGUGAACCAGAGGAACACACGUUGUGGUCUAUUACCUGGUA, with 0.153; and GUCCUCUUUCACGUGCGCGUGAAAGAGAGAAGUGAACCAGAGACACACACGUUGUGGUAUAUUACCUGGUA, with 0.148.
Consider GUCCUCUUUCACGUGCGCGUGAAAGAGAGAAGUGAACCAGAGUAACACACGUUGCGGUAUAUUACCUGGUA, for which the self-cleavage was 0.0805.
Turning to GUCCUCUUUCACGUGCGCGUGAAAGAGAGAAGUGAACCAGAGUACCACACGUUGUGGUAUAUUACCUGGUA, the self-cleavage was determined as 0.0872.
GUCCUCUUUCACGUGCGCGUGAAAGAGAGAAGUGAACCAGAGUAGCACACGUUGUGGUAUAUUACCUGGUA: the self-cleavage came to 0.119.
Then GUCCUCUUUCACGUGCGCGUGAAAGAGAGAAGUGAACCAGAGUAACACACGUUGUGCUAUAUUACCUGGUA, with 0.17; and GUCCUCUUUCACGUGCGCGUGAAAGAGAGAAGUGAACCAGAGUAACACACGUUGUGGUAUAUUACCAGGUA, with 0.0806.
Then GUCCUCUUUCACGUGCGCGUGAAAGAGAGAAGUGAACCAGAGUAACACACGUUGUGGUAUAUUACCGGGUA, with 0.0666; and GUCCUCUUUCACGUGCGCGUGAAAGAGAGAAGUGAACCAGAGCAACACACGUUGUGGUAUAUUAUCUGGUA, with 0.173; and GUCCUCUUUCACGUGCGCGUGAAAGAGAGAAGUGAACCAGAGCAACACACGUUGUGGUAUAUUAACUGGUA, with 0.102.
Under GUCCUCUUUCACGUGCGCGUGAAAGAGAGAAGUGAACCAGAGCAACACACGUUGUGGUAUAUUAGCUGGUA stands 0.0609; under GUCCUCUUUCACGUGCGCGUGAAAGAGAGAAGUGAACCAGAGUAACACACGUUGUGGUAUAUUAGCUGGUA, 0.155.
For the variant GUCCUCUUUCACGUGCGCGUGAAAGAGAGAAGUGAACCAGAGUAACACACGUUGUGGUAUAUUAUCUGGUA, the self-cleavage stood at 0.144.
As to GUCCUCUUUCACGUGCGCGUGAAAGAGAGAAGUGAACCAGAGGAACACACGUUGUGGUAUAUUAUCUGGUA, the self-cleavage is 0.224.
On to GUCCUCUUUCACGUGCGCGUGAAAGAGAGAAGUGAACCAGAGCAACACACGUUGUGGUAUAUUACCGGGUA, for which the self-cleavage is 0.13.
Then GUCCUCUUUCACGUGCGCGUGAAAGAGAGAAGUGAACCAGAGUAACACACGUUGUAGUAUAUUACCUGGUA, with 0.155; and GUCCUCUUUCACGUGCGCGUGAAAGAGAGAAGUGAACCAGAGGAACACACGUUGUGGUAUACUACCUGGUA, with 0.162; and GUCCUCUUUCACGUGCGCGUGAAAGAGAGAAGUGAACCAGAGGAACACACGUUGUGGUAUAGUACCUGGUA, with 0.0971.
With GUCCUCUUUCACGUGCGCGUGAAAGAGAGAAGUGAACCAGAGGAACACACGUUGUGGUAUAAUACCUGGUA, the self-cleavage worked out at 0.125.
Then GUCCUCUUUCACGUGCGCGUGAAAGAGAGAAGUGAACCAGAGUAACACACGUUGUGGUCUAUUACCUGGUA, with 0.12; and GUCCUCUUUCACGUGCGCGUGAAAGAGAGAAGUGAACCAGAGCAACACACAUUGUGGUAUAUUACCUGGUA, with 0.0814.
For the variant GUCCUCUUUCACGUGCGCGUGAAAGAGAGAAGUGAACCAGAGCAACACACCUUGUGGUAUAUUACCUGGUA, the self-cleavage worked out at 0.193.
In the case of GUCCUCUUUCACGUGCGCGUGAAAGAGAGAAGUGAACCAGAGUAACACACGUUGUGGCAUAUUACCUGGUA, the self-cleavage is 0.189.
Regarding GUCCUCUUUCACGUGCGCGUGAAAGAGAGAAGUGAACCAGAGUAACACACGUUGUGGUAUAUUACCUGGAA, the self-cleavage is 0.145.
For the variant GUCCUCUUUCACGUGCGCGUGAAAGAGAGAAGUGAACCAGAGCAACACACGUUGUGGUAUAUUACAUGGUA, the self-cleavage came to 0.0928.
